Assay results reported in patent US8034904B2, “Anti-IGF-I receptor antibody” (Immunogen Inc., priority 2002, dated 2011).

Key:
[1] = system: MCF-7 (breast) cells; experiment: Growth and survival of MCF-7 cells (MTT assay); assay type: cell-based, human
Description: Several human tumor cell lines were tested in serum-free conditions for their growth and survival response to IGF-I. These cell lines were treated with EM164 antibody in the presence of IGF-I, IGF-II, or serum, and their growth and survival responses were measured using an MTT assay after 2-4 days. Approximately 1500 cells were plated in a 96-well plate in regular medium with serum, which was replaced with serum-free medium the following day (either serum-free RPMI medium supplemented with transferrin and BSA, or phenol-red free medium as specified by Dufourny, B. et al., 1997, J. Biol. Chem., 272, 31163-31171). After one day of growth in serum-free medium, the cells were incubated with about 75 μL of 10 μg/mL antibody for 30 min.-3 h, followed by the addition of 25 μL of IGF-I (or IGF-II or serum) solution to obtain a final concentration of 10 ng/mL IGF-I, or 20 ng/mL IGF-II, or 0.04-10% serum. In some experiments, the cells were stimulated first with IGF-I for 15 min before the addition of EM164 antibody, or both IGF-I and EM164 antibody were added together. The cells were then allowed to grow for another 2-3 days. A solution of MTT (3-(4,5)-dimethylthiazol-2-yl)-2,5-diphenyltetrazolium bromide; 25 μL of a 5 mg/mL solution in PBS) was then added and the cells were returned to the incubator for 2-3 h. The medium was then removed and replaced by 100 μL DMSO, mixed, and the absorbance of the plate was measured at 545 nm.

[2] = system: IGF-I receptor of goat fibroblast cells; experiment: Immunoprecipitation of IGF-I receptor from goat fibroblast cells; assay type: binding
From the text: A Western blot of the EM164 antibody immunoprecipitate was detected using a rabbit polyclonal anti-IGF-I receptor beta chain (C-terminus) antibody (Santa Cruz Biotechnology) and a goat-anti-rabbit-IgG-antibody-horseradish peroxidase conjugate, followed by washes and enhanced chemiluminescence (ECL) detection.

[3] = system: truncated IGF-I receptor alpha chain construct (residues 1-468 fused to 704-719, myc tag); experiment: Binding to truncated IGF-I receptor alpha chain construct; set-up: species or system human
Sequence of truncated IGF-I receptor alpha chain construct (residues 1-468 fused to 704-719, myc tag) (P08069 31-488 limits assumed): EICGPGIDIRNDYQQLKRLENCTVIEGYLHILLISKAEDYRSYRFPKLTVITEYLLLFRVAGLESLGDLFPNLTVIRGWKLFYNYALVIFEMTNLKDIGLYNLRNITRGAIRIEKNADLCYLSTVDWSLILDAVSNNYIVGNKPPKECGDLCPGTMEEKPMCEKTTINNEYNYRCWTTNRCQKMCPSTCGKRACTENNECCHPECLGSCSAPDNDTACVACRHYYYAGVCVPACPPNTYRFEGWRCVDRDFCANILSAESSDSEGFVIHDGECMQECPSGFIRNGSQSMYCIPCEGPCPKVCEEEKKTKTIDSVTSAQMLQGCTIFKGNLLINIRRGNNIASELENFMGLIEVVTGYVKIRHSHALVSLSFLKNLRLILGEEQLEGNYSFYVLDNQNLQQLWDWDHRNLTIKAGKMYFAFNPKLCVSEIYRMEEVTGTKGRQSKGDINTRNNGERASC
From the text: The binding domain of EM164 antibody was further characterized using a truncated alpha chain construct, which comprised the cysteine rich domain flanked by L1 and L2 domains (residues 1-468) fused with the 16-mer-C-terminus piece (residues 704-719) and which was terminated by a C-terminus epitope tag. This smaller IGF-I receptor, which lacked residues 469-703, has been reported to bind IGF-I, although less tightly compared to the native full-length IGF-I receptor (Molina, L. et al., 2000, FEBS Letters, 467, 226-230; Kristensen, C. et al., 1999, J. Biol. Chem., 274, 37251-37356). Thus, a truncated IGF-I receptor alpha chain construct was prepared comprising residues 1-468 fused to the C-terminus piece that is residues 704-719 and flanked by a C-terminus myc epitope tag. A stable cell line which expressed this construct, and which also expresses the construct transiently in human embryonic kidney 293T cells, was constructed.

[4] = system: MCF-7 cells; experiment: Cell cycle analysis of MCF-7 cells (propidium iodide, flow cytometry); assay type: cell-based, human; details: IGF-I 20 ng/mL with or without EM164 20 μg/mL, 1 day
Description: The EM164 antibody caused growth arrest of cells in G0/G1 phase of cell cycle and abrogated the mitogenic effect of IGF-I. For cell cycle analysis, MCF-7 cells were treated with IGF-I (20 ng/mL) in the presence or absence of EM164 (20 μg/mL) for 1 day and then analyzed by propidium iodide staining and flow cytometry.

B1: EM164: murine anti-IGF-I receptor monoclonal antibody, IgG1 with kappa light chain, hybridoma ATCC PTA-4457; heavy SEQ ID NO:7, light SEQ ID NO:8 (antibody)
heavy: QVQLQQSGAELVKPGASVKLSCKASGYTFTSYWMHWVKQRPGQGLEWIGEINPSNGRTNYNEKFKRKATLTVDKSSSTAYMQLSSLTSEDSAVYYFARGRPDYYGSSKWYFDVWGAGTTVTVSS
light: DVLMTQTPLSLPVSLGDQASISCRSSQSIVHSNVNTYLEWYLQKPGQSPKLLIYKVSNRFSGVPDRFSGSGSGTDFTLRISRVEAEDLGIYYCFQGSHVPPTFGGGTKLEIKR
modifications: antibody heavy chain; antibody light chain
- inhibition of growth and survival of MCF-7 cells over a range of serum concentrations ([1]; 0.04-10% serum, FIG. 8): equally effective
- IGF-1- or serum-stimulated growth and survival of MCF-7 cells ([1]; FIGS. 7 and 8): strongly inhibited
- % Inhibition by EM164 antibody of Growth/survival of cells in 1.25-10% serum ([1]; MCF-7 (breast), 5-10 μg/mL EM164): 85%
- Inhibition by EM164 antibody of IGF-I-stimulated growth in serum-free medium ([1]; MCF-7 (breast), 5-10 μg/mL EM164, 10 ng/mL IGF-I): 100%
- inhibition of serum-stimulated growth ([1]; MCF-7 cells, in the presence of serum): greater than 80%
- IGF-II-stimulated growth and survival of MCF-7 cells ([1]; separate experiment): strongly inhibited
- binding to IGF-I receptor (immunoprecipitation) [2]: did not bind
- binding to truncated IGF-I receptor alpha chain construct [3]: strong binding
- cells in the G0/G1 phase [4]: 77%
- cells in the S phase [4]: 9%
